In patent US12297265B2, “Antibody and use thereof” (SICHUAN KELUN-BIOTECH BIOPHARMACEUTICAL CO., LTD., priority 2018, dated 2025):
Marks after values point to notes of the source that are not given here.

Key:
[1] = molecular target: T1, human Claudin18.2 (Homo sapiens, UniProt P56856); test: Flow cytometry affinity to HEK293T-Claudin 18.2 cells; assay type: binding; parameters: expressed in transfected cells
Description: The affinity of 2C6.9-hz21 to human claudin 18.2 on cell membrane was detected using HEK293T-Claudin 18.2 cells, as follows. HEK293T-Claudin 18.2 cells were detached and centrifuged, followed by washing for twice with PBS. And then the cells were resuspended in PBS containing 1% BSA and were plated into 96-well tip bottom plate at 300000 cells per well in a volume of 50 μl for 20 wells in total. 2C6.9-hz21 or IMAB362 antibody was then added with 11 concentrations starting from 1000 nM with three-fold dilution. Human IgG was served as negative control. The reactions were mixed well and incubated for 1 h at 4° C. in the dark. Following by three times of washing with PBS, the FITC-labelled anti-human Fc secondary antibody (Biolegend, 409322) was added and incubated for 0.5h in the dark. Detection was performed by flow cytometry (Beckman, Cytoflex) after washing for three times with PBS.

[2] = Pharmacokinetics in SCID mice; assay type: in vivo; conditions: 10 mg/kg intravenously
Description: Blood samples were taken 8 h, 1 d, 3 d, 8 d and 15 d after injection and serum antibody concentrations were determined by Cellular ELISA as described in Example 8. […] The data of mouse serum was subjected to curve fitting.

[3] = molecular target: T1, human Claudin18.2; test: Cellular ELISA on NUGC-4 cells; assay type: binding; parameters: cell lines endogenously expressing human Claudin18.2; host or cells: NUGC-4 human gastric cancer cell line
Description: Human Claudin18.2 is a four transmembrane protein and has a complex structure. Cellular ELISA was thus carried out to maintain the structure of Claudin18.2. The stable cell line L929-Claudin 18.2 constructed in Example 1 were used for detection. Specifically, L929-Claudin 18.2 adherent cells were detached by 2 mM EDTA treatment. The cells were resuspended and adjusted to 2×10^5/mL and 100 μL of the resuspension was plated into 96 well plate and incubated overnight at 37° C. The next day, the media was removed, and the plate was washed with PBS once. 100 μL/well 4% formaldehyde was added to the plate. After 30 min of incubation at room temperature, formaldehyde was removed, followed by washing twice with PBS. […] The absorbance at 450 nm was read on a plate reader (MD, SpectraMax M2) and the results were subjected to curve fitting by Graphpad Prism.
(§1) To determine binding affinity of the candidate antibodies to cell lines endogenously expressing human Claudin18.2, FACS analysis was performed to detect human Claudin18.2 expression level on NUGC-4 cells (purchased from Japan JCRB cell bank, catalog number: JCRB0834) which endogenously expresses human Claudin18.2. […] The binding affinity between candidate antibodies and NUGC-4 cells was then determined by Cellular ELISA following the same protocol as above.

[4] = test system: KATOIII-Claudin 18.2 cells; test: NK cell mediated ADCC on KATOIII-Claudin 18.2 cells (LDH); assay type: cell-based; conditions: KATOIII-Claudin 18.2 target cells, NK92MI-CD16a effector cells
Description: The steps were as follows: HEK293T-Claudin 18.2, L929-Claudin 18.2, KATOIII-Claudin 18.2 and NUGC-4 cells were harvested and centrifuged followed by adjustment of cell density. 1×10^4/well of cells were plated on a plate and incubated overnight. The medium was removed on the next day. NK92MI-CD16a cells (Huabo Biopharm) were centrifuged, resuspended in MEMA medium and adjusted to 1×10^6/mL, then 50 μL/well cells were added to the corresponding wells. […] For HEK293T-Claudin18.2, L929-Claudin18.2 and KATOIII-Claudin18.2 cells, ten antibody concentrations were tested, starting from 40 μg/mL with 5-fold dilution. For NUGC-4 cells, eleven antibody concentrations were tested, starting from 2 mg/mL with 5-fold dilution. 50 μL/well of the diluted antibodies were added to the corresponding wells and the reactions were left to stand in incubator at 37° C., 5% CO2 and incubated for 5.5h. Lysis buffer was then added to the positive control well and incubated for another 0.5h. 50 μL/well of Lactate Dehydrogenase (LDH) detection agent (DOJINDO LABORATORISE, CK12) were added to the wells and the absorbance at 490 nm were taken every 10 min on a plate reader (MD, SpectraMax M2). The results were imported into Graphpad Prism for curve fitting.

[5] = molecular target: T1, human Claudin18.2; test: Affinity of chimeric and humanized antibodies to Ba/F3-Claudin 18.2 cells (IntelliCyt); assay type: binding; parameters: expressed in transfected cells; host or cells: Ba/F3 (BaF/3, DSMZ ACC300), hygromycin-selected monoclonal line
Excerpt: In order to evaluate the anti-Claudin18.2 humanized antibodies, codon optimized cDNAs of the heavy chains and the light chains of the candidate humanized antibodies from Example 6 were synthesized and ligated into pcDNA3.4 (by Nanjing Genscript Biotech Corporation). Expi293F cells (purchased from Thermo Incorporation) were co-transfected with pcDNA3.4 coding the heavy chain and light chain of each antibody. The antibodies were purified from the supernatant using protein A (MabSelect SuRe, GE). The affinity of the humanized antibodies to Claudin18.2 was determined using Ba/F3-Claudin18.2 cells which over-expressed human Claudin18.2. Ba/F3-Claudin18.2 cells (60000 in 10 ul buffer) were incubated with purified humanized antibodies on ice for 30 min, followed by washing with buffer (PBS+2% FBS) twice and addition of Alexa647-labeled goat-anti-human IgG Fc antibody (1:500 dilution). The cells were incubated on ice for another 30 min and analyzed by IntelliCyt.

[6] = molecular target: T1, human Claudin18.2; test: FACS positive rate of NUGC-4 cells; assay type: binding; parameters: cell lines endogenously expressing human Claudin18.2; host or cells: NUGC-4 human gastric cancer cell line; conditions: NUGC-4 cells endogenously expressing human Claudin18.2, FACS
Description: as §1

## IMAB362: Zolbetuximab (IMAB362) developed by Astellas, human-mouse chimeric IgG1 antibody targeting Claudin 18.2; control antibody, sequences from CN 101312989 B [reference compound]
[1]
  Max MFI: 156715.7
[2]
  AUC: 7391.22 µg·h/mL
[3]
  OD450 (Max signal value): Not detected
[4]
  Max. Cytotoxicity: 49%
[5]
  Max MFI: 4.99* ×10^6
[6]
  NUGC-4 cells tested positive for Claudin 18.2: 20%
